T1: human CTLA-4 (human, UniProt P16410 36-223)
T1 construct: whole, on cells; also called CTLA-4 antigen; cytotoxic T lymphocyte-associated antigen 4
T1 sequence (looked up): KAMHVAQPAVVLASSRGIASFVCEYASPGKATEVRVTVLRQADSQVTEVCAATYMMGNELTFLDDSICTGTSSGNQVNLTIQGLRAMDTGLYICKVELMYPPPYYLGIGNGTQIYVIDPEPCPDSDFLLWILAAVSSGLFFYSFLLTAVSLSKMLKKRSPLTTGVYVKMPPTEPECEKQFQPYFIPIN

B1: bispecific antibody CTLA4-E-HN (bispecific antibody, human IgG4 S228P, kappa)
heavy: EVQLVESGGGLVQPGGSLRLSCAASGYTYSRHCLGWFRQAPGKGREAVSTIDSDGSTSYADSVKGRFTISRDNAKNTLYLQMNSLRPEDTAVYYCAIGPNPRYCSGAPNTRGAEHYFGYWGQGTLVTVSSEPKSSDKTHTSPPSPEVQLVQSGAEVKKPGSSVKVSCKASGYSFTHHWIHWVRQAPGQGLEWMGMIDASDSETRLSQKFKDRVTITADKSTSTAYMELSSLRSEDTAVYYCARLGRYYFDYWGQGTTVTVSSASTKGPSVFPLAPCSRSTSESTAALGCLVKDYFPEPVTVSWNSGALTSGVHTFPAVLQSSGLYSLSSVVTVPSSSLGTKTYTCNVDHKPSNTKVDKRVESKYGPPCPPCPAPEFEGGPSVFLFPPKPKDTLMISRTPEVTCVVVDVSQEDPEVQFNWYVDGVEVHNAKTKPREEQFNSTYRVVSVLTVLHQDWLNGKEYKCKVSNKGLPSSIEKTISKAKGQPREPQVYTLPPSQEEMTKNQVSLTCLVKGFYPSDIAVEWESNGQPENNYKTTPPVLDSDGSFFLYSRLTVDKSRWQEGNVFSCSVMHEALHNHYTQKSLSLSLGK
light: EIVLTQSPATLSLSPGERATLSCRASENVGTYISWYQQKPGQAPRLLIYGASNRYTGIPARFSGSGSGTDFTLTISSLEPEDFAVYYCGESYGHLYTFGGGTKVEIKRTVAAPSVFIFPPSDEQLKSGTASVVCLLNNFYPREAKVQWKVDNALQSGNSQESVTEQDSKDSTYSLSSTLTLSKADYEKHKVYACEVTHQGLSSPVTKSFNRGEC
notes: also called H2 + L0
B2: bispecific antibody CTLA4-E-HC (bispecific antibody, human IgG4 S228P, kappa)
heavy: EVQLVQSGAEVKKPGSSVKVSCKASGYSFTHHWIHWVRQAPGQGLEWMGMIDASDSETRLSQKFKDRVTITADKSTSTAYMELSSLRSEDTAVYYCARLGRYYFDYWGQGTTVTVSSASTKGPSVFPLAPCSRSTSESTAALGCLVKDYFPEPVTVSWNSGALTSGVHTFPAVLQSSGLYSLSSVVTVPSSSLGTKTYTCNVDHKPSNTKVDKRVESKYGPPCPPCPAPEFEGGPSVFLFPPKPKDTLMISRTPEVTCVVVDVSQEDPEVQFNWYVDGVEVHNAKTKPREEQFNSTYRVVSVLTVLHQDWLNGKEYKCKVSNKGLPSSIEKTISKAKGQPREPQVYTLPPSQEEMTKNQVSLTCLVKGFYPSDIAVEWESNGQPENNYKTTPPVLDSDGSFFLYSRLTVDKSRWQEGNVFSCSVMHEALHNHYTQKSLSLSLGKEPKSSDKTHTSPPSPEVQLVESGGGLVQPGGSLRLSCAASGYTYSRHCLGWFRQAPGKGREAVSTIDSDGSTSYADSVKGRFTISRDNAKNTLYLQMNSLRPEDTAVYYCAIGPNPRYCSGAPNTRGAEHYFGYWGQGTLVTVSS
light: EIVLTQSPATLSLSPGERATLSCRASENVGTYISWYQQKPGQAPRLLIYGASNRYTGIPARFSGSGSGTDFTLTISSLEPEDFAVYYCGESYGHLYTFGGGTKVEIKRTVAAPSVFIFPPSDEQLKSGTASVVCLLNNFYPREAKVQWKVDNALQSGNSQESVTEQDSKDSTYSLSSTLTLSKADYEKHKVYACEVTHQGLSSPVTKSFNRGEC
notes: also called H1 + L0
B3: bispecific antibody CTLA4-G15-HN (bispecific antibody, human IgG4 S228P, kappa)
heavy: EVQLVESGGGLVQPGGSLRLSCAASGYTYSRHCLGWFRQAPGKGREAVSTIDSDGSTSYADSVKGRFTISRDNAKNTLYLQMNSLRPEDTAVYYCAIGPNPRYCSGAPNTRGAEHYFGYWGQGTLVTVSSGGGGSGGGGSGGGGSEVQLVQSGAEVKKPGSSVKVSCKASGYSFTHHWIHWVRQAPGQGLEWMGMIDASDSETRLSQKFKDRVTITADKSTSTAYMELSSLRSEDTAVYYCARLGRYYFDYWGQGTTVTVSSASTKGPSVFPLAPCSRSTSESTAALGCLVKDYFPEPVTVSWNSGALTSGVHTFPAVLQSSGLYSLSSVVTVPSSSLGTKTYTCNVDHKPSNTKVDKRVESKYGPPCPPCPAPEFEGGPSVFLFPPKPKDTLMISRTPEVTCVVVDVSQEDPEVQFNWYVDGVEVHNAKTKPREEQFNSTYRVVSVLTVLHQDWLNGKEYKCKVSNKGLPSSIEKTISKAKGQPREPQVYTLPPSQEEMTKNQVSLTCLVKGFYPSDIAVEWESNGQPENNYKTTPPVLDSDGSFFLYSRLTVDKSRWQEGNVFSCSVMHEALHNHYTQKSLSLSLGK
light: EIVLTQSPATLSLSPGERATLSCRASENVGTYISWYQQKPGQAPRLLIYGASNRYTGIPARFSGSGSGTDFTLTISSLEPEDFAVYYCGESYGHLYTFGGGTKVEIKRTVAAPSVFIFPPSDEQLKSGTASVVCLLNNFYPREAKVQWKVDNALQSGNSQESVTEQDSKDSTYSLSSTLTLSKADYEKHKVYACEVTHQGLSSPVTKSFNRGEC
notes: also called H4 + L0
B4: bispecific antibody CTLA4-G15-HC (bispecific antibody, human IgG4 S228P, kappa)
heavy: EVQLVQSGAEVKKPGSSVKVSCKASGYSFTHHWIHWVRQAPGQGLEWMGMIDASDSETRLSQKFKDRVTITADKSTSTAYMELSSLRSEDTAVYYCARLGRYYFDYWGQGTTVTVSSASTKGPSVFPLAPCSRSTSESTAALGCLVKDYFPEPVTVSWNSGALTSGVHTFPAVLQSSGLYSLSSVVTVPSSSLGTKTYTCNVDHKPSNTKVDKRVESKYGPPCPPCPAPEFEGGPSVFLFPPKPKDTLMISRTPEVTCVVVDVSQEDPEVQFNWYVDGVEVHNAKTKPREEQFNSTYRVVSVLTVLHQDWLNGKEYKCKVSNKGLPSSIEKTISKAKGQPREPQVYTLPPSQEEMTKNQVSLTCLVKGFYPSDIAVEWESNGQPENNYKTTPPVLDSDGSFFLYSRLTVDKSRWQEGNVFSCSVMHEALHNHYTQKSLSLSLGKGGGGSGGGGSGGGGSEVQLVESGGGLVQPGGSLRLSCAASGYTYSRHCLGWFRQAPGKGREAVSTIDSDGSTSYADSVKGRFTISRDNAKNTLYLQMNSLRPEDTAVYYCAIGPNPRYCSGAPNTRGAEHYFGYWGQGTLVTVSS
light: EIVLTQSPATLSLSPGERATLSCRASENVGTYISWYQQKPGQAPRLLIYGASNRYTGIPARFSGSGSGTDFTLTISSLEPEDFAVYYCGESYGHLYTFGGGTKVEIKRTVAAPSVFIFPPSDEQLKSGTASVVCLLNNFYPREAKVQWKVDNALQSGNSQESVTEQDSKDSTYSLSSTLTLSKADYEKHKVYACEVTHQGLSSPVTKSFNRGEC
notes: also called H3 + L0
B5: bispecific antibody CTLA4-G15-LN (bispecific antibody, human IgG4 S228P, kappa)
light: EVQLVESGGGLVQPGGSLRLSCAASGYTYSRHCLGWFRQAPGKGREAVSTIDSDGSTSYADSVKGRFTISRDNAKNTLYLQMNSLRPEDTAVYYCAIGPNPRYCSGAPNTRGAEHYFGYWGQGTLVTVSSGGGGSGGGGSGGGGSEIVLTQSPATLSLSPGERATLSCRASENVGTYISWYQQKPGQAPRLLIYGASNRYTGIPARFSGSGSGTDFTLTISSLEPEDFAVYYCGESYGHLYTFGGGTKVEIKRTVAAPSVFIFPPSDEQLKSGTASVVCLLNNFYPREAKVQWKVDNALQSGNSQESVTEQDSKDSTYSLSSTLTLSKADYEKHKVYACEVTHQGLSSPVTKSFNRGEC
heavy: not shown
notes: also called L1 + H0
B6: bispecific antibody CTLA4-G9-LN (bispecific antibody, human IgG4 S228P, kappa)
light: EVQLVESGGGLVQPGGSLRLSCAASGYTYSRHCLGWFRQAPGKGREAVSTIDSDGSTSYADSVKGRFTISRDNAKNTLYLQMNSLRPEDTAVYYCAIGPNPRYCSGAPNTRGAEHYFGYWGQGTLVTVSSGGGGSGGGSEIVLTQSPATLSLSPGERATLSCRASENVGTYISWYQQKPGQAPRLLIYGASNRYTGIPARFSGSGSGTDFTLTISSLEPEDFAVYYCGESYGHLYTFGGGTKVEIKRTVAAPSVFIFPPSDEQLKSGTASVVCLLNNFYPREAKVQWKVDNALQSGNSQESVTEQDSKDSTYSLSSTLTLSKADYEKHKVYACEVTHQGLSSPVTKSFNRGEC
heavy: not shown
notes: also called L2 + H0

These binders were tested against T1, human CTLA-4 (assay: flow cytometry on CHO-K1 cells expressing CTLA-4).
Experimental: For the constructed series of bispecific antibodies, the affinity of these samples with antigens was measured by using a flow cytometer. […] Then, an antibody-antigen binding curve was generated based on the geometric mean, raw data of four parameters was plotted by using the […] Prism V6.02 software, and a best fitted value program was compiled to analyze EC₅₀.

Binding result, binds:
B1
B2
B3
B4
B5
B6

Reference: patent US20220332848A1 (NANJING GENSCRIPT BIOTECH, published 2022)
